Reference: US5773574A, “Polypeptides for promoting cell attachment” (The Scripps Research Institute, priority 1991, dated 1998)
Values belong to the compound of their own block, whether it stands above or below them. Residues, ends and D or L forms follow the SMILES beside them.

What was measured:
[1] = biological target: T1, GPIIb-IIIa (Homo sapiens, UniProt P05106+P08514); assay: Interaction of 125I-labelled ligands with GPIIb-IIIa coated microtiter wells (Table 3); assay type: binding; conditions: 125I-labelled ligand
T1 construct: GPIIb-IIIa from platelet lysates is purified by the following procedure; from tissue
Method: Incubate the GPIIb-IIIa with plate for 1 hour at room temperature, then dump unbound and block with 150 ul of 5% BSA in the same buffer for 1 hour at room temperature. Wash three times with 150 μl of Tyrode's buffer with 5 mM HEPES, 1 mM MgCl2 1 mg/ml dextrose, 1 mg/ml BSA. Add 50 μl of ^125 I fusion protein (125 mg/ml) at varied concentration (4×10^-7 to 1×10^-10 M). Incubate 4 hours to overnight at room temperature (with lead shield).
Carefully remove radioactive samples and wash 3 times with 150 μl Tyrodes with 5 mM HEPES, 1 mM MgCl2, 1 mg/ml dextrose, 1 mg/ml BSA. Count with a Gamma Counter and elute by boiling in SDS-PAGE loading Buffer.
To determine if the insert coded polypeptide containing fibronectin residues 1255-1456 bound GPIIb-IIIa, the capacity of microtiter wells coated with purified GPIIb-IIIa to bind the radiolabelled fusion-protein preparation was ascertained (Table 3). In addition, the radiolabelled material bound to the insolubilized GPIIb-IIIa was recovered and analyzed by SDS-PAGE followed by radioautography. […] The isolated protein products were a mixture of insert coded polypeptides containing fusion protein and maltose binding protein breakdown products. only those bands containing the insert-coded polypeptide bound to the insolubilized GPIIb-IIIa and that binding was inhibitable by either EDTA or the monoclonal antibody FnI-16.

[2] = biological target: GPIIb-IIIa (Homo sapiens (Human)) (UniProt P08514); assay: 125I-labelled ligand on GPIIb-IIIa-coated wells; inhibitor Mab 16.12
[3] = biological target: GPIIb-IIIa (Homo sapiens (Human)) (UniProt P08514); assay: 10 nM biotinylated Fn on GPIIb-IIIa-coated wells, avidin-HRP detection
[4] = biological target: GPIIb-IIIa (Homo sapiens (Human)) (UniProt P08514); assay: 125I-labelled ligand on GPIIb-IIIa-coated wells; inhibitor 2 mM GDTA (so in the source)
[5] = biological target: GPIIb-IIIa (Homo sapiens (Human)) (UniProt P08514); assay: 125I-labelled ligand on GPIIb-IIIa-coated wells; no inhibitor
[6] = biological target: T1, GPIIb-IIIa; assay: Competition assay: biotinylated Fn binding to purified GPIIb-IIIa in presence of synthetic polypeptides; conditions: 250 μM polypeptide, 10 nM biotinylated Fn; FIG. 9
Method: (SEQ ID NO 11) as shown by the line with closed squares. […] The competition assays were performed in microtiter wells of a 96-well plate as described in Example 9b(1). Briefly, microtiter wells coated with purified GPIIb-IIIa receptor were maintained with 10 nM biotinylated Fn for 2 hours at room temperature in the presence of varying concentrations of D-11-T and RGDS.
The competition assay was performed by first admixing into individual wells of a 96 well microtiter plate (Immunlon, Dynatech) 10 μg/ml of purified GPIIb-IIIa, prepared in Example 1, diluted in HEPES-saline buffer, pH 7.4, consisting of 10 mM HEPES, 150 mM NaCl, 1 mM CaCl2 and 1 mM MgCl2. […]
The Fn-peptide admixtures were maintained in GPIIb-IIIa-coated wells for 2 hours at room temperature to allow the biotinylated Fn to bind to the receptor. Following this maintenance period, the reacted wells were washed as described above and the amount of biotinylated Fn bound to GPIIb-IIIa was determined by admixing 0.1 ml avidin bound to biotinylated horseradish peroxidase H (Hrp) (Sigma, St. Louis, Mo.) at a 1:2000 dilution to form an avidin-biotinylated Fn admixture. […] After maintaining the color developing-reaction admixture for 10 minutes at 20° C., the reaction was stopped with the admixture of 2N H2 SO4, and the stopped reactions were measured for absorbance as described in Example 3a. […]

[7] = biological target: GPIIb-IIIa (Homo sapiens (Human)) (UniProt P08514); assay: competition with 10 nM biotinylated Fn on GPIIb-IIIa-coated wells

Counts ×10^-3 ([1]; inhibitor 2 mM EDTA): 8 Counts ×10^-3
Counts ×10^-3 ([1]; inhibitor Mab 16.12): 12 Counts ×10^-3
Counts ×10^-3 ([1]; no inhibitor): 42 Counts ×10^-3
Compound: Fibronectin: intact Fn isolated from fresh human citrated plasma on gelatin-sepharose

Counts ×10^-3 (counts ×10^-3) [2]: 12
absorbance at 490 nm (absorbance at 490 nm) [3]: 2.7
Counts ×10^-3 (counts ×10^-3) [4]: 8
Counts ×10^-3 (counts ×10^-3) [5]: 42
Compound: fibronectin (Fn), intact, isolated from fresh human citrated plasma (from UniProt P02751) (ligand)

Compound: CC[C@H](C)[C@H](NC(=O)[C@H](CO)NC(=O)[C@H](CC(N)=O)NC(=O)[C@H](CCCNC(=N)N)NC(=O)[C@H](CO)NC(=O)[C@H](Cc1c[nH]cn1)NC(=O)[C@@H]1CCCN1C(=O)[C@@H](NC(=O)[C@H](CCCNC(=N)N)NC(=O)[C@@H](N)CC(=O)O)C(C)C)C(=O)N[C@H](C(=O)O)[C@@H](C)O [D-11-T] (H-DRVPHSRNSIT-OH)
inhibition of binding of biotinylated Fn to GPIIb-IIIa [6]: greater than 80%

percent inhibition of control binding at 200 µM polypeptide [7]: 35 to 40%
Compound: polypeptide DRVPHSR
